Data published in a protein production outcome set (Wang et al. 2014).

Assay: label from the status in PepcDB records
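Note: failed if final PepcDB status was selected cloned or expressed and not failed if soluble or beyond.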

Row | Sequence | protein production
1 | GKGKNIIVLHLESFQQFLIDYKLKEGDKEYEVTPFINSLYHSNATLAFPNFFHQVKAGKTSDAETMMENSLFGLNSGSFMVNYGGENTQFATPSILAQKGGYTSAVFHGNVGTFWNRNNAYKQWGYNYFFDSSYFSKQNSKNSFQYGLNDKYMFKDSIKYLEQMQQPFYTKFITVSNHYPYTSLKGESSEEGFPLAKTDDETINGYFATANYLDAALKSFFDYLKATGLYDNSIFVLYGDHYGISNSRNSSLAPLLGKDSETWSEYDNAMLQRVPYMIHIPGYTNGSIKETFGGEIDALPTLLHILGIDTSQFVQLGQDLLSPQNSQIVAQRTSGTYMTPEYTNYSGRLYNTQTGLEIT | failed
2 | MDKRRVVVTGVGAVTPIGNDAETSWENAKKGVNGVAKMTRLNPDDFPVKIAAELKDFDVEKYLEKKEARKMDRFTHYAIASAEMAVQDSGLVIDDSNANRVGVWIGSGIGGMETFETQYEIFLNRGHRRVSPFFVPMMIPDMGSGQVSIRFGAKGINSTTVTACATATNSIGDAFKVIERGDADAMITGGAEAPITKMSLAGFTANKALSLNPDPETACRPFDKDRDGFIIGEGAGIVILEEYEHAKARGAKIYAEIVGYGATGDAYHITAPAPNGEGAARAMKMAIDDAGLTPDKVDYINAHGTSTPYNDEYETQAIKTVFGEHAKKLAISSTKSMTGHTLGASGGIEAIFALLTIRDNIIAPTIHLKNQDEVCDLDYVPNEAREANVNVVISNSFGFGGHNATLVFKRIED | not failed
3 | MQTPPRLVAIGGLSGSGKTTIAEALAAHVGAPPGARIVESDRIRKAMHGVPAETRLPDNAYRPDVSDRVYNEMTWRAGLILSEGGSVVADAVFDRPADRERIEKAARDRGIPFFGFWLEADPLVLWQRVSERKGGPSDATVDILSRQLQRKAGLEHHHHHH | failed
4 | MIIRQGFKFRLEASDTQGARLRVLCGHARFVWNQALAKCHEAADAEGEYVPRYETMAKWVTAWKREPDTEWLKEAYTDNLQQKLKDLDTGWQRYFKKVEGAQRPRFKKKGKSRDSVRFVNFQKYCKIDNRRVKLPAGLGWVRFRKSREIVGAIKNCTVGFEGGRWFISFQTEREVSEPAHPSASMIGVDMGVARFLTLSDGTFIEPVSAFKVNQGNLARAQRALARKVKFSANWQKQKAKINRLHSRIANLRRDTLHKASTQISNNHAMIVIEDLKVGNMSRSAKGDVDNPGVNVKAKSGLNRSILDQGWYEFRRQLEYKQAFRGGGVLAVPAHHTSQTCPECQHVSPDNRTSQARFECVKCGFKENADLVGAINIQARGHRVLACGEFGLPDSVKQEPVRNREEVAPSAAHAALGIPHRRC | failed
5 | MGAGQTPHPQLIWPALLKQQGCNELLPLRTNDDWQRFCADSKHLLQYGDKLVDSNFHCFVLEEDAHWHPAAPLPPEGLNDLIRAHCATLGHCCTSKMHLHSVMDAIDFLNALEG | not failed
6 | MSRNEVLLNGDINFKEVRCVGDNGEVYGIISSKEALHIAQNLGLDLVLISASAKPPVCKVMDYNKFRYQNEKKIKEAKKKQKQIEIKEIKLSTQIAQNDINYKVKHAREFIESNKHVKFKVVLKGRESQNSKAGLDVLFRVQTMMQDLANPEKEPKTEGRFVSWMFVPKAKEAPKNEKKTKENNPPFNRINLMKGENHAKNED | failed
7 | MSLVVFLIAYVIRRRLDRADHLAGDEVWRNWFHRWGRVEAGQERSVWRGALLVVLPSLALAGAWALSSEAGYRYALYPLELVLMVVLMGAPGWRKVLRAYSDAWRRGDMQAAWHHVQERLPASERGAALSPEAMHLSVSRALMVSVFERFFLVVFWYAVGGIALAFLARGLVALAGQWPQAAARERYQRAARLIGWIPSRLLSCTFGLAGDLAGWSREIRKVFPGFGKKTADVLMISANGSLTGYALDPARFSELHPEEWPDFGGRSLSAIRDLLNRSMLVWICAFALLVIAGMA | failed
8 | MNSVRKIKCLFLIFLDILFINLGYFISLCFEYGKEMKIEYFFNIRNLIILAIFTNILIFCFFNLYKNIWHMAGISECIRCLIASSISSILLILYKFIFNMDVTIVFLINSSILICMFSLLTRMSIRIFRKIYFPYKLESNLRKNVLIVGAGHCGRIVIDEMNKNNKFNPIGIVDDDLNKKGTFLNGVKVLGNRDDIEKICKRIKVDIILIAISNLSSNDKDEIIKRCENTKIKVKIIPSIYDLIDGNVKLTNIRDIDLRDLLGRDETRLDKEEVNNYIKEKIVIVTGGGGSIGSELCRQIAVFNPKKLIILDIYENYAYELENELKRNFKNLDLEVIIASIRDKSRLKKIFDKYKPDLIFHAAAHKHVPLMENNPEEAIKNNVLGTLNVAECADEFNLEKFVFISTDKAVNPTNIMGATKRIGEMIIQAMNEVSKTDFVAVRFGNVLGSNGSVIPLFIEQIKNGGPVTLTHKDITRYFMLIPEAAQLVLQAGAYAKGGEIFVLDMGKPVKIYDLTEKLIRLSGFEPNKDIQIKIVGLRPGEKLYEELILSEEELKKTKNEKIFILSPFKFDIKEIKKKIVELLNVALNEDKKAIKEKLKEIVKNYRDLEQIDFI | failed
9 | MSLLQQADRLHRQLLRTGPAQAPCWEPPVDMIETESAVLIYVALPGVAAGDVAVRFDPDGISISGVRPLPALRNARIHGLEIPYGRFQRRIRLPLHALEPEAPTLADGCLTLTLKKLREAPLEHHHHHH | failed
10 | MEQADVTSLIPILITLFLALTTRNVVVGLFAGVVSGVAMLEGTFVEKGPLDSFSALMKSYLLPQLTDSYNAGVILLLVFIGGFVALMEKSGGGVAFAKKVTQWVASKCQAQLSAWFGGVVIFFSDLGTPLIVGPVFRPLFDKLKVSRQKLAFIIDSTSSPVAILIPFIGWGVYIMGLIQKEFTALNVSMSDWDAFIGAIPYQFYAFLAIAIVPIVSFFKLDFGPMAKAEQLAEQGSDFGKEQESMNVFTHKNAKSSFVWAPLLVMLVVLCTILVPHGFPFQKVAGSTFRAALSSAYFFAAFTLIALMAFYGVRKLSDGIQVYLKGMSNMMSVAVILVLAWALSSVGKELGAAAYIAEQAQAGFPYWLLPAVAFLLAGIISFATGSSWGTFAIMMPLVIPTAVAIDAPLLVCIGAVLSGGLFGDHCSPISETTILSSTGAGCEQYEHFRTQLPYAVLNGVIALVCFLLAGVAASPVIVLAAIVAQFAIYYVLSKQKPTEQLESVSAE | failed
11 | MNPAPFLLLGGALAWLTLYLLGGRKVKAGEFILGAIIFPLSITLQNIVQQLPLLWVGIRPDITSLGTSEIIAISIWMGLIAGIFQELFKYIFVRGKSAGYAFSVGLGFAISEVIFITALVTLSAKGGTPSQPFATNLLSLAERYLVVLFHVGTAIMLTQGTRKVLIEVIGLHALIDSMAAYYQLMSAVYIKTNKIYMIPRILLLTEIVLAVITVIVLIASLPKISQVKEEKEEVIW | failed
12 | MRVIVTEYQPAWVEQFEEEAQALKQILKENCLKVEHIGSTSVPNLAAKPIIDFLVIVEEIEKVDLLQWEFERIGYEYMGEFGLSGRRYLRKGPIKRTHHVHIYQFDNTQEILRHLAFRNYLRENPAIATTYGTLKKQLAQAHPDSIDKYMDGKDAFIKKIEKEALKKYWE | not failed
13 | MKVAIMGAGAVGCYYGGMLARAGHEVILIARPQHVQAIEATGLRLETQSFDEQVKVSASSDPSAVQGADLVLFCVKSTDTQSAALAMKPALAKSALVLSLQNGVENADTLRSLLEQEVAAAVVYVATEMAGPGHVRHHGRGELVIEPTSHGANLAAIFAAAGVPVETSDNVRGALWAKLILNCAYNALSAITQLPYGRLVRGEGVEAVMRDVMEECFAVARAEGVKLPDDVALAIRRIAETMPRQSSSTAQDLARGKRSEIDHLNGLIVRRGDALGIPVPANRVLHALVRLIEDKQQHG | not failed
14 | GERPEPVFDAFADRLAEVAAVPYAMVNFIDENRQFFAGLHAPDGTGSGGRPAADGAEPPDVRRYMARDYGFCPHVVVRRKALVLEDVCDYPRFAGNPVVDEIGIRSYLGAPLIDRTGIALGTICVVDIEPRPWGRAGLETIKALAAELVEQIGRRESGGI | failed
15 | MLTPLQIYFPIGVVLLVAVVLAFTMLGLANVLGPRRPSLVKQTPFECGSEPIGSARERFGVKFYVVALLFIVFDIEAIFLYPWAVLLLPDGQGYPGLGWPGFISMGIFVFTLVAGLVYVWKKGVLDWAD | failed
16 | SNQLQQLQNPGESPPVHPFVAPLSYLLGTWRGQGEGEYPTIPSFRYGEEIRFSHSGKPVIAYTQKTWKLESGAPMHAESGYFRPRPDGSIEVVIAQSTGLVEVQKGTYNVDEQSIKLKSDLVGNASKVKEISREFELVDGKLSYVVRMSTTTNPLQPHLKAILDKL | not failed
17 | SNSHDGSNFSNKFSAHKDVVEDLLRKDTVGLVTFQDFRARREYLERCAVAEAACQNASRRAEELETKKKRVKRANLSRLSFGDSLEDQEENSVEFAKITRFASSKKANGVGFNTSGQDIVKEPDVFSPKEEGFFGKQNRKIGMDPGVDTSFLPDRDREQEERLERERLKQQWLSEQERVKNEEIDIIYSIWDGRGQRKLLSCKKGTTIAKFLSIVQQKVSTLKHCKVEDLMFIKEDMIIPHHLSFYDLISMKARGKNGSLFCFDVHEDIRIRNDASVEKDDSHAAKVVERRWYERNKHIYPASMWEVFDVSKNYGRVQKDFFGN | failed
18 | MPSGQEGLDKFHNLNKGKTMFMQRLITTLILVPLVLLAIFYAPSWILWGVVLVILLLAGMECFKLIPVDNLTVQACFLIFLLMCFWACGYFYSYWLSVGLLVWLLNGLAILTYPRSQNYWGYPIVVAIASLILLPLFTQSLMQISFLQQGKELLVYLLFLIWASDIGAYLTGKQWGKHKLIPKVSPGKSWEGVTGGVILAMIVATLGYYYFIPYSIYIWFGLALSTVVISIFGDLFISILKRRCQLKDTGNIIPGHGGILDRLDSLIAALPWFYFGLTYIPLGI | failed
19 | MARKKITLVGAGNIGGTLAHLALIKQLGDVVLFDIAQGMPNGKALDLLQTCPIEGVDFKVRGTNDYKDLENSDVVIVTAGVPRKPGMSRDDLLGINIKVMQTVGEGIKHNCPNAFVICITNPLDIMVNMLQKFSGVPDNKIVGMAGVLDSARFRTFLADELNVSVQQVQAYVMGGHGDTMVPLTKMSNVAGVSLEQLVKEGKLKQERLDAIVSRTRSGGGEIVALLKTGSAYYAPAAAGIQMAESFLKDKKMILPCAAKVKAGMYGLDEDLFVGVPTEISANGVRPIEVEISDKEREQLQVSINAIKDLNKAAAEILAK | not failed
20 | MINVLILGAASQISRFLIPDLLADKTVYLTLFARQAPQRLGQYAGESRVTLVDGDWNQEADIEQVMSNQDIVFLASSSLVGNQNVVTVMKHTGVQRLIVAGGLGIDDEVAGKFGNWNTRMMGDYTPYKQAAKVILDSGLNTTYLRMTWLYDENGNEKYQIVPEGQPLRGTQVTRQAVAKLVTAIVRQPSLYQYANIGVVEPGTEWDKPSFYLEHHHHHH | failed
21 | MNSFKEGEYVLIRFGEKKFLRKLLPKQSLSVKKSVLKFDEVIGKPEGVKINGFEVYRPTLEEIILLGFERKTQIIYPKDSFYIALKLNLNKEKRVLEFGTGSGALLAVLSEVAGEVWTFEAVEEFYKTAQKNLKKFNLGKNVKFFNVDFKDAEVPEGIFHAAFVDVREPWHYLEKVHKSLMEGAPVGFLLPTANQVIKLLESIENYFGNLEVVEILHRHYKTISERFRPEDQMVAHTAYLVFGRKLKT | not failed
22 | MENKRNVCSLGESSIKRHKSDLSFSSKERKDKVGERISALQQIVSPYGKFPCSFVQVLSAPYLQTVPDATQEELEQYSLRNRGLCLVPMENTVGVAQSNGADIWAPVKTPLSPAFSVTSQSPFR | failed
23 | MSDAHVLKSRLEWGEPAFTILDVRDRSTYNDGHIMGAMAMPIEDLVDRASSSLEKSRDIYVYGAGDEQTSQAVNLLRSAGFEHVSELKGGLAAWKAIGGPTEGIIESRLEHHHHHH | failed
24 | MCGDCVEKEYPNRGNTCLENGSFLLNFTGCAVCSKRDFMLITNKSLKEEDGEEIVTYDHLCKNCHHVIARHEYTFSIMDEFQEYTMLCLLCGKAEDTISILPDDPRQMTLLF | failed
